{"source": "patent US20190185562A1", "about": "(Regeneron, published 2019)", "key": {"[1]": {"target": "T1, full length (FL) human gp130 over-expressed on HEK293/Stat3-luc/gp130-2X Sort cells (human, UniProt P40189 23-918)", "T1 construct": "whole, on cells", "T1 sequence (looked up)": "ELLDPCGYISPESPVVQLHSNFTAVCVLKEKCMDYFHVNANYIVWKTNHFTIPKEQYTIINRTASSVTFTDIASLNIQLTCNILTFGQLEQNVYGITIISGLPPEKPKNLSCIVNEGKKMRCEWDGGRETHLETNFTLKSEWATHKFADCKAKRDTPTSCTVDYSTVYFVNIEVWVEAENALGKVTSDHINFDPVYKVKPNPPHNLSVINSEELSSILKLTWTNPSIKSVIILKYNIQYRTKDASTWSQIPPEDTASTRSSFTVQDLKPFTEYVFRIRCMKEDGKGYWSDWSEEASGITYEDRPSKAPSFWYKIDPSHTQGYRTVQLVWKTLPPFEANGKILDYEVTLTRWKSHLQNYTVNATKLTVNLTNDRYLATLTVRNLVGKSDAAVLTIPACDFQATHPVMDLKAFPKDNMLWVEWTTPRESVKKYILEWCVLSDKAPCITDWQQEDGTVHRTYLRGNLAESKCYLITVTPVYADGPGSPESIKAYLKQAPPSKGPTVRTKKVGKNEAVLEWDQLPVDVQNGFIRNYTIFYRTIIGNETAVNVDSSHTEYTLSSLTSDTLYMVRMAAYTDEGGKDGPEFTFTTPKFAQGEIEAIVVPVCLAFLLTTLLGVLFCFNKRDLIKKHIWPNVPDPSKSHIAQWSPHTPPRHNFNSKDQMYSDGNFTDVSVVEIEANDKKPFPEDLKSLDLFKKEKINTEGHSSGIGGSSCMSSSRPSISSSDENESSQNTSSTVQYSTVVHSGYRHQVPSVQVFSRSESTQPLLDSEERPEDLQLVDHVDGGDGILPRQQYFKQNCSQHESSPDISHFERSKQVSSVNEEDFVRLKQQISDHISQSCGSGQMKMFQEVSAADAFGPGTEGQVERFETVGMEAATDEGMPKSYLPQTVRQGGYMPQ", "assay": "FACS, 10 nM mAb, 293/Stat3-luc/GP130 2X sort cells", "source_text": "(§1) In order to assess cell binding by anti-GP130 antibodies of the invention two cell lines were generated. One cell line generated was HEK293 cells stably over-expressing full length (FL) human gp130 (amino acids 1-918 of accession # P40189 with leucine at position 2 changed to valine, a natural variant) along with a luciferase reporter (Stat3-luciferase, Stat3-luc, SA Bioscience, #CLS-6028L). The cells were sorted twice using flow cytometry for high expression of gp130. It is known hereafter as HEK293/Stat3-luc/gp130-2X Sort. IMR-32 cells (human Neuroblastoma, ATCC), were also evaluated for cell binding as these cells express gp130 endogenously and were used for bioassays. The cells used for binding were generated to stably express a luciferase reporter (Stat3-luciferase, Stat3-luc, SA Bioscience, #CLS-6028L), and are referred to hereafter as IMR-32/STAT3-Luc cells.\n(§2) For the FACS analysis, 10 nM of the antibodies were used to stain 0.5×10^6 cells/well of each cell type at 4° C. in PBS (without calcium and magnesium) containing 2% FBS for 30 minutes. IMR-32/STAT3-luc cells were incubated with 1 mg/mL mouse IgG for 30 minutes at 4° C. to block Fc receptors prior to adding the antibodies. To test whether the anti-gp130 antibody binding is specific for gp130 on the IMR-32 cells, antibodies were added to IMR-32/Stat3-luc cells with or without being pre-bound to 1000 nM of recombinant protein of the ecto-domain of human gp130 fused to myc-myc-his tag (hgp130.mmh) for 30 minutes at 25° C. […] Cells were fixed using BD CytoFix™ (Becton Dickinson, #554655) and analyzed on an IQue® (Intellicyt®) Flow Cytometer. Unstained and secondary antibody alone controls were also tested for all cell lines. The results were analyzed using ForeCyt® (IntelliCyt®) software to determine the geometric means of fluorescence for viable cells."}, "[2]": {"target": "T2, human gp130 expressed endogenously on IMR-32/Stat3-luc cells (human, UniProt P40189 23-918)", "T2 construct": "whole, on cells", "T2 sequence (looked up)": "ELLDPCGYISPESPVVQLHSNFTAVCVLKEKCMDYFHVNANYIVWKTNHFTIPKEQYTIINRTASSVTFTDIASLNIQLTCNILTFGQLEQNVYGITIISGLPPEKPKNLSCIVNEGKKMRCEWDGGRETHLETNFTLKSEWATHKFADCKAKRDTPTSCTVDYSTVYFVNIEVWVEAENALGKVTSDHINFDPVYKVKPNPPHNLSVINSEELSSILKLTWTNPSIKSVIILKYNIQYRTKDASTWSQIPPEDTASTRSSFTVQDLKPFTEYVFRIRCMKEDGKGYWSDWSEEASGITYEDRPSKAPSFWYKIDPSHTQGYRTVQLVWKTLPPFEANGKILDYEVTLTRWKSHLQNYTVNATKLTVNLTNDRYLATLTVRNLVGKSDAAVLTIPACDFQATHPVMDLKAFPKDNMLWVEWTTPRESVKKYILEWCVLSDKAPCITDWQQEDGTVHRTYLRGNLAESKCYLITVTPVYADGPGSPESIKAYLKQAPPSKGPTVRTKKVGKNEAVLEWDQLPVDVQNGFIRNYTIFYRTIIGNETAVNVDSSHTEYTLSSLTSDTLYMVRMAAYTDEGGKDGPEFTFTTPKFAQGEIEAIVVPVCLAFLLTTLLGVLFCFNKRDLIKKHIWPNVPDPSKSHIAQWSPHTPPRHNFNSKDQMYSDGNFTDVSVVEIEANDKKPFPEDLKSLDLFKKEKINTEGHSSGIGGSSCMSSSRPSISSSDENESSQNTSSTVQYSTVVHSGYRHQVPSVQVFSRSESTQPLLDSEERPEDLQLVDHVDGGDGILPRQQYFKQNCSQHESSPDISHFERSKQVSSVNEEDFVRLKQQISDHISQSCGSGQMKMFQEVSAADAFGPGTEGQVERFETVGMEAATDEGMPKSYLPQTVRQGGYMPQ", "assay": "FACS, 10 nM mAb, IMR-32/Stat3-luc cells, no hGP130.mmh", "source_text": "as §1, §2"}, "[3]": {"target": "T2, human gp130 expressed endogenously on …", "assay": "FACS, 10 nM mAb, IMR-32/Stat3-luc cells, competitor 1 uM hGP130.mmh", "source_text": "as §1, §2"}, "[4]": {"target": "T3, human gp130 extracellular domain with the Fc portion of mouse IgG2a at the C-terminus (human)", "T3 construct": "Dimeric; also called hGP130-mFc; dimeric GP130 protein", "T3 chain": "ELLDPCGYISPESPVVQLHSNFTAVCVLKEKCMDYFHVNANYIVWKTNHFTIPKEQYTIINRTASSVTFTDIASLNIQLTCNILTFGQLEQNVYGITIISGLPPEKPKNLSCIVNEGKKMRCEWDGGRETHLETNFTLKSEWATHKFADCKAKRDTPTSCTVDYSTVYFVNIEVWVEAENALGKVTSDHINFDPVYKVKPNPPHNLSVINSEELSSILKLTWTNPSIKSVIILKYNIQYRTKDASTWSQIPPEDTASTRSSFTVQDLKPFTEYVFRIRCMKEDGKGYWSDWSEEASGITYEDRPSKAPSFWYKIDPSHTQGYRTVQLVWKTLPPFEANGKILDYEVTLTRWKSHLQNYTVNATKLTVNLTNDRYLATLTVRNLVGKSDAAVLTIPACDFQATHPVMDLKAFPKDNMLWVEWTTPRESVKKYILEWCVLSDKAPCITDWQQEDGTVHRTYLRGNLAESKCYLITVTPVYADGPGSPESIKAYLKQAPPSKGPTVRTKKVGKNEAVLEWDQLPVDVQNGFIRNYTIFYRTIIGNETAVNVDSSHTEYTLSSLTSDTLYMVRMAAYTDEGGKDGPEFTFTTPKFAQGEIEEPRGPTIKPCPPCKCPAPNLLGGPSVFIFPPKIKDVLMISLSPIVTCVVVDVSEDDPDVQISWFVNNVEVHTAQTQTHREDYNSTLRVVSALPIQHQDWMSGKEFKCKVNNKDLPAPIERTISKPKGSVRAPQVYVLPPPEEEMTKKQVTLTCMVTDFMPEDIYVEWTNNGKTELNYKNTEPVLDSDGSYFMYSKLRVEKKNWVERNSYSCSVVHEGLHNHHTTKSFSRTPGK", "assay": "blocking ELISA, 2.5 nM hGP130-mFc to plate-bound CNTFR/CNTF complex; * below the lower limit of quantitation of 1.25E-09 M", "description": "The experiment was carried out using the following procedure. Human CNTFRα was coated at a concentration of […] in HBSS on a 96-well microtiter plate overnight at 4° C. […] Human CNTF at a concentration of 1 μg/ml in HBSS was added to the plate bound CNTFRα for 1 hour at room temperature. In separate dilution plates, a constant amount of 2.5 nM of human GP130-mFc protein was titrated with antibodies ranging from 3.4 pM to 200 nM in serial dilution and with no antibody present. These solutions were incubated for 1 hour at room temperature (RT) and subsequently transferred to the microtiter plates with CNTFRα/CNTF complex without washing. The plates were incubated for 2 hours at RT, washed with PBST buffer, and plate-bound hGP130-mFc was detected with an anti-mFc polyclonal antibody conjugated with horseradish peroxidase (HRP) (Jackson ImmunoResearch Inc). Samples were developed with a TMB solution (BD Biosciences, substrate A and B mixed at 1:1 ratio as per manufacturer's instructions) to produce a colorimetric reaction and then neutralized with 1M sulfuric acid before measuring absorbance at 450 nm on a Victor ×5 plate reader."}}}
{"binder": "MAb16666 (antibody, V domains shown, Variable domains only) VH: EVQLVESGGGLVQSGGSLRLSCAASGFTFSRYEMNWVRQAPGKGLEWVAYISNTGTTRDYSDSVKGRFTISRDNAKNSLYLQMSSLRVEDTAVYYCVREKFSGTSDWFDPWGQGTLVTVSS VL: not shown", "values": [{"measurement": "MFI - Normalized to Unstained Control", "setting": "[1]", "result": 159}, {"measurement": "MFI - Normalized to Unstained Control", "setting": "[2]", "result": 23}, {"measurement": "MFI - Normalized to Unstained Control", "setting": "[3]", "result": 8}, {"measurement": "IC50", "setting": "[4]", "result": "< 1.25", "unit": "nM"}]}
